Test results taken from patent US20250002610A1 (Genmab, published 2025).

Assays:
[1] = biological target: T1, human FAPα (Fibroblast activation protein alpha), cell surface expressed (human, UniProt Q12884 1-760); test: flow cytometry, human lung fibroblasts, n = 3
T1 construct: Endogenous on human lung fibroblasts and CAFs
T1 sequence: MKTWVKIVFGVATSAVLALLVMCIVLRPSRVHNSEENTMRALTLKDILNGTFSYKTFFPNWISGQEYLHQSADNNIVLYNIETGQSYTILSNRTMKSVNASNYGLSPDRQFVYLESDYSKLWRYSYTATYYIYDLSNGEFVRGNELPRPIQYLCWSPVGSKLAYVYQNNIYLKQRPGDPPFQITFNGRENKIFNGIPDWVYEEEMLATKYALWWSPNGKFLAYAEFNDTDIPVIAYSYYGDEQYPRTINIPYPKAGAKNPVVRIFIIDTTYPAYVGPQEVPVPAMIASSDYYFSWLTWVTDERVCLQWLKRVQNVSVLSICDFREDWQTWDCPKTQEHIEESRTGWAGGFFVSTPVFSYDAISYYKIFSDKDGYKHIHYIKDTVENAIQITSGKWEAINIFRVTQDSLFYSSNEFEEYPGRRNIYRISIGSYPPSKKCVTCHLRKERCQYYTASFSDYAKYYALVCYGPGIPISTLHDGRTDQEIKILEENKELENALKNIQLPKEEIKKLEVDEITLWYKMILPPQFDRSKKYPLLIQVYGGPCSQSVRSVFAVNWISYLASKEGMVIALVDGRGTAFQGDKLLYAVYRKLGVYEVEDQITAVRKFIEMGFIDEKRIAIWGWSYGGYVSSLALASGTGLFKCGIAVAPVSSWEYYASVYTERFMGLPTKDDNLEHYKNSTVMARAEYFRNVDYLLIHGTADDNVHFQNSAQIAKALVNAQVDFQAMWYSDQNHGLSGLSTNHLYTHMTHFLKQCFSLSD
Description: Binding of bispecific or monoclonal antibodies carrying the anti-FAPα arm derived from IgG1-FAPα-FERL (BisG1-FAPα-FERL/DR4-FERR, BisG1-FAPα-FERL/b12-FERR, and IgG1-FAPα-FERL) to cell surface expressed human FAPα was analyzed by flow cytometry using human lung fibroblasts and CAFs, which endogenously express FAPα. BisG1-b12-FERL/b12-FERR was used as negative control.
Human lung fibroblasts and CAFs (50,000 cells/well) were seeded in 96-Well round bottom plates (Greiner Bio-one, Cat #650101). Antibody dilutions were prepared using fluorescence-activated cell sorting (FACS) buffer, consisting of phosphate buffer saline (PBS, Lonza, Cat #BE17-517Q)+1% Bovine Serum Albumin (BSA, Roche, Cat #10735086001)+0.02% Sodium Azide (Bio-World, Cat #41920044-3). Plates were centrifuged, supernatant was removed, cells were resuspended in 50 μL of human Fc Block (BD, Cat #564220, diluted 1:100 in FACS buffer) and 50 μL of viability stain TO-PRO-3 Iodide (Thermo Fisher, Cat #T3605, diluted 1: 25,000 in FACS buffer), and incubated for 15 min at 4° C. Plates were washed three times with FACS buffer. Plates were centrifuged, supernatant was removed, cells were resuspended in 50 μL of antibody dilutions (concentration range 90-0.0005 μg/mL, three-fold dilution steps using FACS buffer) of BisG1-FAPα-FERL/DR4-FERR, BisG1-FAPα-FERL/b12-FERR, BisG1-b12-FERL/b12-FERR (top six concentrations only for CAFs culture) or IgG1-FAPα-FERL (top four concentrations only for CAFs culture) and incubated for 30 min at 4° C. Cells were washed three times with FACS buffer and resuspended in 50 μL of Fluorescein isothiocyanate (FITC)-labeled polyclonal antibody goat anti-mouse IgG1 (Jackson Immuno Research, Cat #109-096-097, diluted 1:100 in FACS buffer). […] Antibody binding to viable cells (TO-PRO-3 negative) was analyzed by flow cytometry on a FACSCelesta™ (BD biosciences) and data were processed using FlowJo_v10.8.1 (FlowJo LLC). Geomean fluorescence intensity, gMFI, was determined and visualized using GraphPad Prism.

[2] = biological target: T2, human DR4 (Death Receptor 4), cell surface expressed on human tumor cell lines (human, UniProt O00220 24-468); test: flow cytometry, A549 cells, average ± SEM
T2 construct: also called TNFRSF10A; TRAIL-R1
T2 sequence: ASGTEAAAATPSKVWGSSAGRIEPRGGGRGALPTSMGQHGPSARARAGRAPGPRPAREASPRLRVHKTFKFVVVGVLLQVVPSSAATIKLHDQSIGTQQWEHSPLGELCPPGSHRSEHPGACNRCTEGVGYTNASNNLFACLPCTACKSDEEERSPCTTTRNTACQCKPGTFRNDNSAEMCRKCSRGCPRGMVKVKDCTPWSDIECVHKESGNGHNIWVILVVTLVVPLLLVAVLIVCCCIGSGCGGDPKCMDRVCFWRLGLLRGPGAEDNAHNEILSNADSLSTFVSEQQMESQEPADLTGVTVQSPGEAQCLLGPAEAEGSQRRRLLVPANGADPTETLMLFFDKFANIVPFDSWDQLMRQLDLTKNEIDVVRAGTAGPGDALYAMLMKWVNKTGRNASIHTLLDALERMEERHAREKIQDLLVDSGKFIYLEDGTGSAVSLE

B1: BisG1-FAPα-FERL/b12-FERR (bispecific antibody, human IgG1, kappa)
heavy 1: EVQLLESGGGLVQPGGSPRLSCEASGFTFSSYALSWVRQAPGKGLEWVSAISGSGGGRYYADSVKGRFTISRDNSKNTLFLQMNSLRAEDTAVYYCAKEGYSSSGTYWDHWGQGTLVTVSSASTKGPSVFPLAPSSKSTSGGTAALGCLVKDYFPEPVTVSWNSGALTSGVHTFPAVLQSSGLYSLSSVVTVPSSSLGTQTYICNVNHKPSNTKVDKRVEPKSCDKTHTCPPCPAPEFERGPSVFLFPPKPKDTLMISRTPEVTCVVVDVSHEDPEVKFNWYVDGVEVHNAKTKPREEQYNSTYRVVSVLTVLHQDWLNGKEYKCKVSNKALPAPIEKTISKAKGQPREPQVYTLPPSREEMTKNQVSLTCLVKGFYPSDIAVEWESNGQPENNYKTTPPVLDSDGSFLLYSKLTVDKSRWQQGNVFSCSVMHEALHNHYTQKSLSLSPG
light 1: AIQMTQSPSSVSASVGDRVTITCRASQGVSSWLAWYQQKPGRAPKLLIYVASTLQSGVPSRFSGSGSGTDFTLTINSLQPEDFATYYCQQANSFPPTFGQGTRLEMKRTVAAPSVFIFPPSDEQLKSGTASVVCLLNNFYPREAKVQWKVDNALQSGNSQESVTEQDSKDSTYSLSSTLTLSKADYEKHKVYACEVTHQGLSSPVTKSFNRGEC
heavy 2: QVQLVQSGAEVKKPGASVKVSCQASGYRFSNFVIHWVRQAPGQRFEWMGWINPYNGNKEFSAKFQDRVTFTADTSANTAYMELRSLRSADTAVYYCARVGPYSWDDSPQDNYYMDVWGKGTTVIVSSASTKGPSVFPLAPSSKSTSGGTAALGCLVKDYFPEPVTVSWNSGALTSGVHTFPAVLQSSGLYSLSSVVTVPSSSLGTQTYICNVNHKPSNTKVDKRVEPKSCDKTHTCPPCPAPEFERGPSVFLFPPKPKDTLMISRTPEVTCVVVDVSHEDPEVKFNWYVDGVEVHNAKTKPREEQYNSTYRVVSVLTVLHQDWLNGKEYKCKVSNKALPAPIEKTISKAKGQPREPQVYTLPPSREEMTKNQVSLTCLVKGFYPSDIAVEWESNGQPENNYKTTPPVLDSDGSFFLYSRLTVDKSRWQQGNVFSCSVMHEALHNHYTQKSLSLSPG
light 2: EIVLTQSPGTLSLSPGERATFSCRSSHSIRSRRVAWYQHKPGQAPRLVIHGVSNRASGISDRFSGSGSGTDFTLTITRVEPEDFALYYCQVYGASSYTFGQGTKLERKRTVAAPSVFIFPPSDEQLKSGTASVVCLLNNFYPREAKVQWKVDNALQSGNSQESVTEQDSKDSTYSLSSTLTLSKADYEKHKVYACEVTHQGLSSPVTKSFNRGEC
In the case of B1, the EC50 [1] is reported as 0.048 µg/mL.

B2: IgG1-FAPα-FERL (antibody)
heavy: EVQLLESGGGLVQPGGSPRLSCEASGFTFSSYALSWVRQAPGKGLEWVSAISGSGGGRYYADSVKGRFTISRDNSKNTLFLQMNSLRAEDTAVYYCAKEGYSSSGTYWDHWGQGTLVTVSSASTKGPSVFPLAPSSKSTSGGTAALGCLVKDYFPEPVTVSWNSGALTSGVHTFPAVLQSSGLYSLSSVVTVPSSSLGTQTYICNVNHKPSNTKVDKRVEPKSCDKTHTCPPCPAPEFERGPSVFLFPPKPKDTLMISRTPEVTCVVVDVSHEDPEVKFNWYVDGVEVHNAKTKPREEQYNSTYRVVSVLTVLHQDWLNGKEYKCKVSNKALPAPIEKTISKAKGQPREPQVYTLPPSREEMTKNQVSLTCLVKGFYPSDIAVEWESNGQPENNYKTTPPVLDSDGSFLLYSKLTVDKSRWQQGNVFSCSVMHEALHNHYTQKSLSLSPG
light: AIQMTQSPSSVSASVGDRVTITCRASQGVSSWLAWYQQKPGRAPKLLIYVASTLQSGVPSRFSGSGSGTDFTLTINSLQPEDFATYYCQQANSFPPTFGQGTRLEMKRTVAAPSVFIFPPSDEQLKSGTASVVCLLNNFYPREAKVQWKVDNALQSGNSQESVTEQDSKDSTYSLSSTLTLSKADYEKHKVYACEVTHQGLSSPVTKSFNRGEC
notes: Bivalent monoclonal IgG1 kappa
B2 showed an EC50 [1] of 0.022 µg/mL.

B3: BisG1-b12-FERL/DR4-FERR (bispecific antibody, human IgG1, kappa, lambda)
heavy 1: QVQLVQSGAEVKKPGASVKVSCQASGYRFSNFVIHWVRQAPGQRFEWMGWINPYNGNKEFSAKFQDRVTFTADTSANTAYMELRSLRSADTAVYYCARVGPYSWDDSPQDNYYMDVWGKGTTVIVSSASTKGPSVFPLAPSSKSTSGGTAALGCLVKDYFPEPVTVSWNSGALTSGVHTFPAVLQSSGLYSLSSVVTVPSSSLGTQTYICNVNHKPSNTKVDKRVEPKSCDKTHTCPPCPAPEFERGPSVFLFPPKPKDTLMISRTPEVTCVVVDVSHEDPEVKFNWYVDGVEVHNAKTKPREEQYNSTYRVVSVLTVLHQDWLNGKEYKCKVSNKALPAPIEKTISKAKGQPREPQVYTLPPSREEMTKNQVSLTCLVKGFYPSDIAVEWESNGQPENNYKTTPPVLDSDGSFLLYSKLTVDKSRWQQGNVFSCSVMHEALHNHYTQKSLSLSPG
light 1: EIVLTQSPGTLSLSPGERATFSCRSSHSIRSRRVAWYQHKPGQAPRLVIHGVSNRASGISDRFSGSGSGTDFTLTITRVEPEDFALYYCQVYGASSYTFGQGTKLERKRTVAAPSVFIFPPSDEQLKSGTASVVCLLNNFYPREAKVQWKVDNALQSGNSQESVTEQDSKDSTYSLSSTLTLSKADYEKHKVYACEVTHQGLSSPVTKSFNRGEC
heavy 2: QVQLQESGPGLVKPSGTLSLTCAVSGGSISSYSWWSWIRQPPGKGLEWIGELYHSGSTNYNPSLKSRVTISVDKSKNQFSLKLRSVTAADTAVYYCVRGVATIDYWGQGTLVTVSSASTKGPSVFPLAPSSKSTSGGTAALGCLVKDYFPEPVTVSWNSGALTSGVHTFPAVLQSSGLYSLSSVVTVPSSSLGTQTYICNVNHKPSNTKVDKRVEPKSCDKTHTCPPCPAPEFERGPSVFLFPPKPKDTLMISRTPEVTCVVVDVSHEDPEVKFNWYVDGVEVHNAKTKPREEQYNSTYRVVSVLTVLHQDWLNGKEYKCKVSNKALPAPIEKTISKAKGQPREPQVYTLPPSREEMTKNQVSLTCLVKGFYPSDIAVEWESNGQPENNYKTTPPVLDSDGSFFLYSRLTVDKSRWQQGNVFSCSVMHEALHNHYTQKSLSLSPG
light 2: QSALTQPPSASGSPGQSVTISCTGTSSDVGGYNFVSWYQQDPGKAPKLLIYEVTKRPSGVPDRFSGSKSGNTASLTVSGLQAEDEADYYCSSYAGSNNVMFGGGTKLTVLGQPKAAPSVTLFPPSSEELQANKATLVCLISDFYPGAVTVAWKADSSPVKAGVETTTPSKQSNNKYAASSYLSLTPEQWKSHRSYSCQVTHEGSTVEKTVAPTECS
notes: Fab-arm exchange of IgG1-b12-FERL and IgG1-DR4-FERR; also called bsIgG1-ctrl-FERLxDR4-FERR
In the case of B3, the EC50 [2] is reported as 0.78 µg/mL.

B4: IgG1-DR4-FERR (antibody, V domains shown)
VH: QVQLQESGPGLVKPSGTLSLTCAVSGGSISSYSWWSWIRQPPGKGLEWIGELYHSGSTNYNPSLKSRVTISVDKSKNQFSLKLRSVTAADTAVYYCVRGVATIDYWGQGTLVTVSS
VL: QSALTQPPSASGSPGQSVTISCTGTSSDVGGYNFVSWYQQDPGKAPKLLIYEVTKRPSGVPDRFSGSKSGNTASLTVSGLQAEDEADYYCSSYAGSNNVMFGGGTKLTVLG
notes: Bivalent monoclonal IgG1 lambda
B4 gave an EC50 [2] of 0.32 µg/mL.
